These results are taken from patent publication US20260103748A1 (NAVINCI DIAGNOSTICS, published 2026).

The target in test [1] is T1, AKT2 (human, UniProt P31751 1-481).
T1 construct: Endogenous protein in fixed human breast cancer cells (isPLA)
The test can be described thus: multiplex in situ PLA on fixed human breast cancer cells with or without EGF. On the procedure: (§1) Detection was performed in three imaging rounds with stripping of the specific fluorescently-labelled detection probe between rounds. DAPI staining is shown in each image. Three isPLA reactions are detected per round using either a FITC, Cy3 or Cy5 filter. The isPLA assays target protein phosphorylation-protein or protein-protein interactions.
(§2) In situ PLA probes using the set-up illustrated in FIG. 3 were generated to target protein-protein interactions or protein-protein phosphorylation targets. Each isPLA probe set contains a unique oligonucleotide sequence that is complimentary to a fluorescent-conjugated detection oligonucleotide. The detection oligos are conjugated to either FITC, Cy3 or Cy5.
(§3) Following probe incubation, the padlocks were circularised by ligation, subjected to RCA to generate RCA products and detected with fluorescently labelled detection probes. Detection was performed in three rounds (see FIG. 11). […] Next, the detection oligos were stripped and new detection oligos were added targeting phosphorylated Grb2, phosphorylated Pi3K and phosphorylated STAT3. The same procedure was repeated again to detect phosphorylated Pi3K-PanAKT interaction, STAT5a-JAK2 interaction and JAK1-JAK3 interaction.

Test [2] has as its target T2, JAK2 (human, UniProt O60674 1-1132).
T2 construct: Endogenous protein in fixed human breast cancer cells (isPLA)
The test is described as above. On the procedure: as §1, §2, §3

For test [3], the target named is T3, Beta-catenin (UniProt P35222 2-781).
T3 construct: Endogenous protein in fixed MCF-7 cells, detected through a primary antibody and oligonucleotide-conjugated secondary antibodies (in situ PLA); also called Beta-caternin
T3 sequence (looked up): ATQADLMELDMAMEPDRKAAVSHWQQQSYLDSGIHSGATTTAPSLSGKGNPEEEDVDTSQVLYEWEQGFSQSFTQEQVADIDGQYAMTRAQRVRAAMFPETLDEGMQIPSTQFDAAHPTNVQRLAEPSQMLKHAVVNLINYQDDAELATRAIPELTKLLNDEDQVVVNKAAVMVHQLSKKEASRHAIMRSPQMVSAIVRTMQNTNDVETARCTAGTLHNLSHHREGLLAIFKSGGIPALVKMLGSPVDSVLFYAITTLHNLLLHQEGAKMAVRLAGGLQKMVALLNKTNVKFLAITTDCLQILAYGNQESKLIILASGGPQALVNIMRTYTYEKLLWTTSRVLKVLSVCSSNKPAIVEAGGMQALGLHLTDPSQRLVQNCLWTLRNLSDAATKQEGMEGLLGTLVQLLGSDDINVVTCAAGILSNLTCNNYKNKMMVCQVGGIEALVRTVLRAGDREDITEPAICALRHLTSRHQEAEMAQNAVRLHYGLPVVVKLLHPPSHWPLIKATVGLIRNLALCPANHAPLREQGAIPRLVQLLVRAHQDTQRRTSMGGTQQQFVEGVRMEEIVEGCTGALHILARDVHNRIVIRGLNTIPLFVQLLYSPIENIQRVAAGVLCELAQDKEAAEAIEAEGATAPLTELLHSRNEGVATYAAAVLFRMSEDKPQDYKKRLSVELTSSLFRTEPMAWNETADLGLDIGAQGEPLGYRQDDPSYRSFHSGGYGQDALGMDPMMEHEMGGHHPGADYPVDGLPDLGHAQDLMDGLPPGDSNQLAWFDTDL
Briefly: in situ proximity ligation assay on fixed MCF-7 cells, with blocking oligonucleotide 13+13, RCA and Cy5 detection.
Procedure: The validation of the design was performed on MCF-7 cells, using a high concentration of proximity probes (conjugated secondary antibodies), probe A: anti-Mouse, with padlocks hybridized; probe B: anti-Rabbit with ligation templates (24 nt hybridization site, 12 nt on each end), 50 nM each). After incubation the fixed MCF-7 cells with (one or both primary antibody for Beta-caternin and E-cadherin) or without the primary antibodies (-primary) and washing, the secondary antibodies with (1 uM blocking oligos, 13 nt hybridization site on both ends) or without blocking oligos were applied to the MCF-7 cells.
When the probe A and B bind in close proximity, the blocking oligonucleotide can be competed away. The signal here results from the rolling cycle amplification products, representing the close proximity of Beta-catenin and E-cadherin detected by Cy5 labelled detection oligonucleotides, the nuclei were stained with DAPI.

T1 sequence (P31751 whole entry): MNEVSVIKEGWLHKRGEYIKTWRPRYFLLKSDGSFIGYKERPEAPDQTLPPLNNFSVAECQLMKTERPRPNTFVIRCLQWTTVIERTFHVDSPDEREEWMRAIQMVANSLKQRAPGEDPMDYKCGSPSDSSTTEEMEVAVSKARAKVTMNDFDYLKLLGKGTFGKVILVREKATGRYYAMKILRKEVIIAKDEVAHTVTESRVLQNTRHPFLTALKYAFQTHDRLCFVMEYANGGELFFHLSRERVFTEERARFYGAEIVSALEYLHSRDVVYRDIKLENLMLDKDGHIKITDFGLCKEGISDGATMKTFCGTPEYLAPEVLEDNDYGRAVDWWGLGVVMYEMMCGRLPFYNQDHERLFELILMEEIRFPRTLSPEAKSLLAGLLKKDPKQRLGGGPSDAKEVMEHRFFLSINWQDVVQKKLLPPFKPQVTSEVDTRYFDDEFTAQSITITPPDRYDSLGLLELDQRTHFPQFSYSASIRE
T2 sequence (O60674 whole entry): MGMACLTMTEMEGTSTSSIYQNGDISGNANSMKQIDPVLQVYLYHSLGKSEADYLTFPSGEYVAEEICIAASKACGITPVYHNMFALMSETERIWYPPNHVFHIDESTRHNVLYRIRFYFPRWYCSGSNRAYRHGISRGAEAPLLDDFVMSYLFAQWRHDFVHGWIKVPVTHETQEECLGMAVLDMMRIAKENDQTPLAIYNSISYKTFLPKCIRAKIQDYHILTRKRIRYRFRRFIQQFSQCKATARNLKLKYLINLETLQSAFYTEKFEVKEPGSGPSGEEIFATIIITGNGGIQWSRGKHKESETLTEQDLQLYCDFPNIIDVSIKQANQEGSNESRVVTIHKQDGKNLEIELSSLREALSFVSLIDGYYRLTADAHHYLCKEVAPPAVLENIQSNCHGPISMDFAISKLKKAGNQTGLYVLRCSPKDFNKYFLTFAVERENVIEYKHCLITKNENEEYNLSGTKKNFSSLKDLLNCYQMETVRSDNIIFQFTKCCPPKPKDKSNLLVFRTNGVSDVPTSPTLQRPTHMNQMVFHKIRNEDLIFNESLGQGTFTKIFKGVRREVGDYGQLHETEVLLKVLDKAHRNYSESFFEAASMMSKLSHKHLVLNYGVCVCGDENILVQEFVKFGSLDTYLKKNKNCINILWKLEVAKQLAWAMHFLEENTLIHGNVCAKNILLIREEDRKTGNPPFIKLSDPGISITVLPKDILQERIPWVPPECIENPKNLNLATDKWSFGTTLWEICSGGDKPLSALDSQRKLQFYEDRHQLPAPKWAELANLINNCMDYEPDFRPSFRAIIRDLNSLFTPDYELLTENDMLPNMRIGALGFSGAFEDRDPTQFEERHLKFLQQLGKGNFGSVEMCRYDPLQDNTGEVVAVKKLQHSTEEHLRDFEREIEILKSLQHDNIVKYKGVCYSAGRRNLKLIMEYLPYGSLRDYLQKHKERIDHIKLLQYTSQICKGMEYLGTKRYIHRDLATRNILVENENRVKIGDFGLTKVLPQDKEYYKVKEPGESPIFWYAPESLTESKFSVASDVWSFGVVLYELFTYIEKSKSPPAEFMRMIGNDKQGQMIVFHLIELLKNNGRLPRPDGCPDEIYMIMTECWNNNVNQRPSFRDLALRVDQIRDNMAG

B1: AKT3 (enzyme, human, UniProt Q9Y243 2-479, looked up)
chain: SDVTIVKEGWVQKRGEYIKNWRPRYFLLKTDGSFIGYKEKPQDVDLPYPLNNFSVAKCQLMKTERPKPNTFIIRCLQWTTVIERTFHVDTPEEREEWTEAIQAVADRLQRQEEERMNCSPTSQIDNIGEEEMDASTTHHKRKTMNDFDYLKLLGKGTFGKVILVREKASGKYYAMKILKKEVIIAKDEVAHTLTESRVLKNTRHPFLTSLKYSFQTKDRLCFVMEYVNGGELFFHLSRERVFSEDRTRFYGAEIVSALDYLHSGKIVYRDLKLENLMLDKDGHIKITDFGLCKEGITDAATMKTFCGTPEYLAPEVLEDNDYGRAVDWWGLGVVMYEMMCGRLPFYNQDHEKLFELILMEDIKFPRTLSSDAKSLLSGLLIKDPNKRLGGGPDDAKEIMRHSFFSGVNWQDVYDKKLVPPFKPQVTSETDTRYFDEEFTAQTITITPPEKYDEDGMDCMDNERRPHFPQFSYSASGRE
notes: Endogenous protein in fixed human breast cancer cells (isPLA)
Take B1: the binding result in test [1] was “binds”.

B2: STAT5a (other, human, UniProt P42229 1-794, looked up)
chain: MAGWIQAQQLQGDALRQMQVLYGQHFPIEVRHYLAQWIESQPWDAIDLDNPQDRAQATQLLEGLVQELQKKAEHQVGEDGFLLKIKLGHYATQLQKTYDRCPLELVRCIRHILYNEQRLVREANNCSSPAGILVDAMSQKHLQINQTFEELRLVTQDTENELKKLQQTQEYFIIQYQESLRIQAQFAQLAQLSPQERLSRETALQQKQVSLEAWLQREAQTLQQYRVELAEKHQKTLQLLRKQQTIILDDELIQWKRRQQLAGNGGPPEGSLDVLQSWCEKLAEIIWQNRQQIRRAEHLCQQLPIPGPVEEMLAEVNATITDIISALVTSTFIIEKQPPQVLKTQTKFAATVRLLVGGKLNVHMNPPQVKATIISEQQAKSLLKNENTRNECSGEILNNCCVMEYHQATGTLSAHFRNMSLKRIKRADRRGAESVTEEKFTVLFESQFSVGSNELVFQVKTLSLPVVVIVHGSQDHNATATVLWDNAFAEPGRVPFAVPDKVLWPQLCEALNMKFKAEVQSNRGLTKENLVFLAQKLFNNSSSHLEDYSGLSVSWSQFNRENLPGWNYTFWQWFDGVMEVLKKHHKPHWNDGAILGFVNKQQAHDLLINKPDGTFLLRFSDSEIGGITIAWKFDSPERNLWNLKPFTTRDFSIRSLADRLGDLSYLIYVFPDRPKDEVFSKYYTPVLAKAVDGYVKPQIKQVVPEFVNASADAGGSSATYMDQAPSPAVCPQAPYNMYPQNPDHVLDQDGEFDLDETMDVARHVEELLRRPMDSLDSRLSPPAGLFTSARGSLS
notes: as for B1
In the case of B2, in test [2], the binding result is listed as “binds”.

B3: E-cadherin (other, UniProt P12830 155-882, looked up)
chain: DWVIPPISCPENEKGPFPKNLVQIKSNKDKEGKVFYSITGQGADTPPVGVFIIERETGWLKVTEPLDRERIATYTLFSHAVSSNGNAVEDPMEILITVTDQNDNKPEFTQEVFKGSVMEGALPGTSVMEVTATDADDDVNTYNAAIAYTILSQDPELPDKNMFTINRNTGVISVVTTGLDRESFPTYTLVVQAADLQGEGLSTTATAVITVTDTNDNPPIFNPTTYKGQVPENEANVVITTLKVTDADAPNTPAWEAVYTILNDDGGQFVVTTNPVNNDGILKTAKGLDFEAKQQYILHVAVTNVVPFEVSLTTSTATVTVDVLDVNEAPIFVPPEKRVEVSEDFGVGQEITSYTAQEPDTFMEQKITYRIWRDTANWLEINPDTGAISTRAELDREDFEHVKNSTYTALIIATDNGSPVATGTGTLLLILSDVNDNAPIPEPRTIFFCERNPKPQVINIIDADLPPNTSPFTAELTHGASANWTIQYNDPTQESIILKPKMALEVGDYKINLKLMDNQNKDQVTTLEVSVCDCEGAAGVCRKAQPVEAGLQIPAILGILGGILALLILILLLLLFLRRRAVVKEPLLPPEDDTRDNVYYYDEEGGGEEDQDFDLSQLHRGLDARPEVTRNDVAPTLMSVPRYLPRPANPDEIGNFIDENLKAADTDPTAPPYDSLLVFDYEGSGSEAASLSSLNSSESDKDQDYDYLNEWGNRFKKLADMYGGGEDD
notes: Endogenous protein in fixed MCF-7 cells, detected through a primary antibody and oligonucleotide-conjugated secondary antibodies (in situ PLA)
Turning to B3, in test [3], the binding result is “binds”.
